Data reported in patent US6294384, “Compositions and methods based upon an isoform of p53” (The Brigham and Women's Hospital Inc., dated 2001).

Biological target: the molecule itself
Assay: yeast two-hybrid system and immunoprecipitation

B1: p35 isoform of p53 derived from rat cardiac myocytes (other)
chain: MEDSQSDMSIELPLSQETFSCLWKLLPPDDILPTTATGSPNSMEDLFLPQDVAELLEGPEEALQVSAPAAQEPGTEAPAPVAPASATPWPLSSSVPSQKTYQGNYGFHLGFLQSGTAKSVMCTYSISLNKLFCQLAKTCPVQLWVTSTPPPGTRVRAMAIYKKSQHMTEVVRRCPHHERCSDGDGLAPPQHLIRVEGNPYAEYLDDRQTFRHSVVVPYEPPEVGSDYTTIHYKYMCNSSCMGGMNRRPILTIITLEDSRSVGVSASACSES
B1: no binding.
